Experimental data reported in PMC5818740 (2018).
Ends that are not written are not given here.

Target: PICK PDZ-BAR construct
Assay: FP

PICK PDZ-BAR construct, sequence (chain, as listed by the source): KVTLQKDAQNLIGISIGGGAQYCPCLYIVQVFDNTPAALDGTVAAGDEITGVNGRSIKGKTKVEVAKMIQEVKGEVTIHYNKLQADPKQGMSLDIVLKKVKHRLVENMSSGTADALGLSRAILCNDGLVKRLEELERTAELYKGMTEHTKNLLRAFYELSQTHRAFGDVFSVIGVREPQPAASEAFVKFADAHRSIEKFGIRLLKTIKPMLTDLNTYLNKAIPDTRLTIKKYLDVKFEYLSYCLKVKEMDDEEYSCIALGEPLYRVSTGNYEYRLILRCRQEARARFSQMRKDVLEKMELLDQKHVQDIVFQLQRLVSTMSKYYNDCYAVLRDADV

IC50: 15.3 µM
Binder: VYGIESVKI-OH [GluR2 peptide (competitor in the fluorescence polarization assay)]
